The target in this assay is T1, soluble human CD3ε chain (human, UniProt P07766 23-126, limits assumed).
T1 construct: also called human CD3 epsilon chain
The experiment in a line: SPR (Biacore), soluble human CD3ε chain. A general note: Surface plasmon resonance follows binding to a sensor surface in real time, without labels.

T1 sequence (P07766 23-126 limits assumed): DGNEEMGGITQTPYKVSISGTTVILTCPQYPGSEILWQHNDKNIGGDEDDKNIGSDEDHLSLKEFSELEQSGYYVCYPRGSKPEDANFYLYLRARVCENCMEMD

B1: TR01H040-E22Hh/none-Hi-Kn010G3/L0226-k0 (antibody, human IgG1, kappa, L234A L235A, N297A)
heavy: QVQLVESGGGLVQPGRSLRLSCAASGFTFSNAWMHWVRQAPGKGLEWVAQIKDKSQNYATYYAESVKGRFTISRADSKNSIYLQMNSLKTEDTAVYYCRYVHYSASYGVDAWGQGTTVTVSSASTKGPSVFPLAPSSKSTSGGTAALGCLVKDYFPEPVTVSWNSGALTSGVHTFPAVLQSSGLYSLSSVVTVPSSSLGTQTYICNVNHKPSNTKVDKKVEPKSCDKTHTCPPCPAPEAAGGPSVFLFPPKPKDTLMISRTPEVTCVVVDVSHEDPEVKFNWYVDGVEVHNAKTKPREEQYASTYRVVSVLTVLHQDWLNGKEYKCKVSNKALPAPIEKTISKAKGQPREPQVYTLPPSRCELTKNQVSLSCAVKGFYPSDIAVEWESNGQPENNYKTTPPVLDSDGSFFLVSKLTVDKSRWQQGNVFSCSVMHEALHNHYTQKSLSLSPDYKDDDDK
chain: EPKSSDKTHTCPPCPAPELLGGPSVFLFPPKPKDTLMISRTPEVTCVVVDVSHEDPEVKFNWYVDGVEVHNAKTKPREEQYNSTYRVVSVLTVLHQDWLNGKEYKCKVSNKALPAPIEKTISKAKGQPREPQVCTLPPSRDELTKNQVSLWCLVKGFYPSDIAVEWESNGQPENNYKTTPPVLDSDGSFFLYSKLTVDKSRWQQGNVFSCSVMHEALHNRYTQKSLSLSP
light: DIVMTQSPLSLPVTPGEPASISCRSSQSPVHSNRNTYIHWYQQKPGQAPRLLIYKVSNRFSGVPDRFSGSGSGTDFTLKISRVEAEDVGVYYCIQGTQVPYTFGQGTKLEIKRTVAAPSVFIFPPSDEQLKSGTASVVCLLNNFYPREAKVQWKVDNALQSGNSQESVTEQDSKDSTYSLSSTLTLSKADYEKHKVYACEVTHQGLSSPVTKSFNRGEC
notes: one-arm antibody (single Fab) with Fab-less hinge-Fc chain Hi-Kn010G3
One may read the Kd as the equilibrium constant for the complex coming apart. A lower Kd goes with a tighter complex. Turning to B1, the Kd was determined as 80.1 nM.

B2: TR01H040-E22Hh/none-Hi-Kn010G3/L0248-k0 (antibody, human IgG1, kappa, L234A L235A, N297A)
heavy: QVQLVESGGGLVQPGRSLRLSCAASGFTFSNAWMHWVRQAPGKGLEWVAQIKDKSQNYATYYAESVKGRFTISRADSKNSIYLQMNSLKTEDTAVYYCRYVHYSASYGVDAWGQGTTVTVSSASTKGPSVFPLAPSSKSTSGGTAALGCLVKDYFPEPVTVSWNSGALTSGVHTFPAVLQSSGLYSLSSVVTVPSSSLGTQTYICNVNHKPSNTKVDKKVEPKSCDKTHTCPPCPAPEAAGGPSVFLFPPKPKDTLMISRTPEVTCVVVDVSHEDPEVKFNWYVDGVEVHNAKTKPREEQYASTYRVVSVLTVLHQDWLNGKEYKCKVSNKALPAPIEKTISKAKGQPREPQVYTLPPSRCELTKNQVSLSCAVKGFYPSDIAVEWESNGQPENNYKTTPPVLDSDGSFFLVSKLTVDKSRWQQGNVFSCSVMHEALHNHYTQKSLSLSPDYKDDDDK
chain: EPKSSDKTHTCPPCPAPELLGGPSVFLFPPKPKDTLMISRTPEVTCVVVDVSHEDPEVKFNWYVDGVEVHNAKTKPREEQYNSTYRVVSVLTVLHQDWLNGKEYKCKVSNKALPAPIEKTISKAKGQPREPQVCTLPPSRDELTKNQVSLWCLVKGFYPSDIAVEWESNGQPENNYKTTPPVLDSDGSFFLYSKLTVDKSRWQQGNVFSCSVMHEALHNRYTQKSLSLSP
light: DIVMTQSPLSLPVTPGEPASISCRPSQSPVHSNRNTYIQWYQQKPGQAPRLLIYKVSNRFSGVPDRFSGSGSGTDFTLKISRVEAEDVGVYYCYQGTQVPYTFGQGTKLEIKRTVAAPSVFIFPPSDEQLKSGTASVVCLLNNFYPREAKVQWKVDNALQSGNSQESVTEQDSKDSTYSLSSTLTLSKADYEKHKVYACEVTHQGLSSPVTKSFNRGEC
notes: as for B1
In turn, B2 returned a Kd of 78.9 nM.

B3: TR01H040-E22Hh/none-Hi-Kn010G3/L0246-k0 (antibody, human IgG1, kappa, L234A L235A, N297A)
heavy: QVQLVESGGGLVQPGRSLRLSCAASGFTFSNAWMHWVRQAPGKGLEWVAQIKDKSQNYATYYAESVKGRFTISRADSKNSIYLQMNSLKTEDTAVYYCRYVHYSASYGVDAWGQGTTVTVSSASTKGPSVFPLAPSSKSTSGGTAALGCLVKDYFPEPVTVSWNSGALTSGVHTFPAVLQSSGLYSLSSVVTVPSSSLGTQTYICNVNHKPSNTKVDKKVEPKSCDKTHTCPPCPAPEAAGGPSVFLFPPKPKDTLMISRTPEVTCVVVDVSHEDPEVKFNWYVDGVEVHNAKTKPREEQYASTYRVVSVLTVLHQDWLNGKEYKCKVSNKALPAPIEKTISKAKGQPREPQVYTLPPSRCELTKNQVSLSCAVKGFYPSDIAVEWESNGQPENNYKTTPPVLDSDGSFFLVSKLTVDKSRWQQGNVFSCSVMHEALHNHYTQKSLSLSPDYKDDDDK
chain: EPKSSDKTHTCPPCPAPELLGGPSVFLFPPKPKDTLMISRTPEVTCVVVDVSHEDPEVKFNWYVDGVEVHNAKTKPREEQYNSTYRVVSVLTVLHQDWLNGKEYKCKVSNKALPAPIEKTISKAKGQPREPQVCTLPPSRDELTKNQVSLWCLVKGFYPSDIAVEWESNGQPENNYKTTPPVLDSDGSFFLYSKLTVDKSRWQQGNVFSCSVMHEALHNRYTQKSLSLSP
light: DIVMTQSPLSLPVTPGEPASISCRSSQSPVHSNRNTYIQWYQQKPGQAPRLLIYKVSNRFSGVPDRFSGSGSGTDFTLKISRVEAEDVGVYYCSQGTQVPYTFGQGTKLEIKRTVAAPSVFIFPPSDEQLKSGTASVVCLLNNFYPREAKVQWKVDNALQSGNSQESVTEQDSKDSTYSLSSTLTLSKADYEKHKVYACEVTHQGLSSPVTKSFNRGEC
notes: as for B1
Molecule B3 registered a Kd of 92.8 nM.

B4: TR01H040-E22Hh/none-Hi-Kn010G3/L0247-k0 (antibody, human IgG1, kappa, L234A L235A, N297A)
heavy: QVQLVESGGGLVQPGRSLRLSCAASGFTFSNAWMHWVRQAPGKGLEWVAQIKDKSQNYATYYAESVKGRFTISRADSKNSIYLQMNSLKTEDTAVYYCRYVHYSASYGVDAWGQGTTVTVSSASTKGPSVFPLAPSSKSTSGGTAALGCLVKDYFPEPVTVSWNSGALTSGVHTFPAVLQSSGLYSLSSVVTVPSSSLGTQTYICNVNHKPSNTKVDKKVEPKSCDKTHTCPPCPAPEAAGGPSVFLFPPKPKDTLMISRTPEVTCVVVDVSHEDPEVKFNWYVDGVEVHNAKTKPREEQYASTYRVVSVLTVLHQDWLNGKEYKCKVSNKALPAPIEKTISKAKGQPREPQVYTLPPSRCELTKNQVSLSCAVKGFYPSDIAVEWESNGQPENNYKTTPPVLDSDGSFFLVSKLTVDKSRWQQGNVFSCSVMHEALHNHYTQKSLSLSPDYKDDDDK
chain: EPKSSDKTHTCPPCPAPELLGGPSVFLFPPKPKDTLMISRTPEVTCVVVDVSHEDPEVKFNWYVDGVEVHNAKTKPREEQYNSTYRVVSVLTVLHQDWLNGKEYKCKVSNKALPAPIEKTISKAKGQPREPQVCTLPPSRDELTKNQVSLWCLVKGFYPSDIAVEWESNGQPENNYKTTPPVLDSDGSFFLYSKLTVDKSRWQQGNVFSCSVMHEALHNRYTQKSLSLSP
light: DIVMTQSPLSLPVTPGEPASISCRSSQSPVHSNRNTYIQWYQQKPGQAPRLLIYKVSNRFSGVPDRFSGSGSGTDFTLKISRVEAEDVGVYYCIQGTQVPYTFGQGTKLEIKRTVAAPSVFIFPPSDEQLKSGTASVVCLLNNFYPREAKVQWKVDNALQSGNSQESVTEQDSKDSTYSLSSTLTLSKADYEKHKVYACEVTHQGLSSPVTKSFNRGEC
notes: as for B1
Molecule B4 displayed a Kd of 100 nM.

B5: TR01H040-E22Hh/none-Hi-Kn010G3/L0249-k0 (antibody, human IgG1, kappa, L234A L235A, N297A)
heavy: QVQLVESGGGLVQPGRSLRLSCAASGFTFSNAWMHWVRQAPGKGLEWVAQIKDKSQNYATYYAESVKGRFTISRADSKNSIYLQMNSLKTEDTAVYYCRYVHYSASYGVDAWGQGTTVTVSSASTKGPSVFPLAPSSKSTSGGTAALGCLVKDYFPEPVTVSWNSGALTSGVHTFPAVLQSSGLYSLSSVVTVPSSSLGTQTYICNVNHKPSNTKVDKKVEPKSCDKTHTCPPCPAPEAAGGPSVFLFPPKPKDTLMISRTPEVTCVVVDVSHEDPEVKFNWYVDGVEVHNAKTKPREEQYASTYRVVSVLTVLHQDWLNGKEYKCKVSNKALPAPIEKTISKAKGQPREPQVYTLPPSRCELTKNQVSLSCAVKGFYPSDIAVEWESNGQPENNYKTTPPVLDSDGSFFLVSKLTVDKSRWQQGNVFSCSVMHEALHNHYTQKSLSLSPDYKDDDDK
chain: EPKSSDKTHTCPPCPAPELLGGPSVFLFPPKPKDTLMISRTPEVTCVVVDVSHEDPEVKFNWYVDGVEVHNAKTKPREEQYNSTYRVVSVLTVLHQDWLNGKEYKCKVSNKALPAPIEKTISKAKGQPREPQVCTLPPSRDELTKNQVSLWCLVKGFYPSDIAVEWESNGQPENNYKTTPPVLDSDGSFFLYSKLTVDKSRWQQGNVFSCSVMHEALHNRYTQKSLSLSP
light: DIVMTQSPLSLPVTPGEPASISCRPSQSPVHSNRNTYIQWYQQKPGQAPRLLIYKVSNRFSGVPDRFSGSGSGTDFTLKISRVEAEDVGVYYCSQGTQVPYTFGQGTKLEIKRTVAAPSVFIFPPSDEQLKSGTASVVCLLNNFYPREAKVQWKVDNALQSGNSQESVTEQDSKDSTYSLSSTLTLSKADYEKHKVYACEVTHQGLSSPVTKSFNRGEC
notes: as for B1
In the case of B5, the affinity, expressed as Kd, was 111 nM.

B6: TR01H040-E22Hh/none-Hi-Kn010G3/L0227-k0 (antibody, human IgG1, kappa, L234A L235A, N297A)
heavy: QVQLVESGGGLVQPGRSLRLSCAASGFTFSNAWMHWVRQAPGKGLEWVAQIKDKSQNYATYYAESVKGRFTISRADSKNSIYLQMNSLKTEDTAVYYCRYVHYSASYGVDAWGQGTTVTVSSASTKGPSVFPLAPSSKSTSGGTAALGCLVKDYFPEPVTVSWNSGALTSGVHTFPAVLQSSGLYSLSSVVTVPSSSLGTQTYICNVNHKPSNTKVDKKVEPKSCDKTHTCPPCPAPEAAGGPSVFLFPPKPKDTLMISRTPEVTCVVVDVSHEDPEVKFNWYVDGVEVHNAKTKPREEQYASTYRVVSVLTVLHQDWLNGKEYKCKVSNKALPAPIEKTISKAKGQPREPQVYTLPPSRCELTKNQVSLSCAVKGFYPSDIAVEWESNGQPENNYKTTPPVLDSDGSFFLVSKLTVDKSRWQQGNVFSCSVMHEALHNHYTQKSLSLSPDYKDDDDK
chain: EPKSSDKTHTCPPCPAPELLGGPSVFLFPPKPKDTLMISRTPEVTCVVVDVSHEDPEVKFNWYVDGVEVHNAKTKPREEQYNSTYRVVSVLTVLHQDWLNGKEYKCKVSNKALPAPIEKTISKAKGQPREPQVCTLPPSRDELTKNQVSLWCLVKGFYPSDIAVEWESNGQPENNYKTTPPVLDSDGSFFLYSKLTVDKSRWQQGNVFSCSVMHEALHNRYTQKSLSLSP
light: DIVMTQSPLSLPVTPGEPASISCRSSQSPVHSNRNTYIHWYQQKPGQAPRLLIYKVSNRFSGVPDRFSGSGSGTDFTLKISRVEAEDVGVYYCLQGTQVPYTFGQGTKLEIKRTVAAPSVFIFPPSDEQLKSGTASVVCLLNNFYPREAKVQWKVDNALQSGNSQESVTEQDSKDSTYSLSSTLTLSKADYEKHKVYACEVTHQGLSSPVTKSFNRGEC
notes: as for B1
Turning to B6, the Kd is 101 nM.

These data come from patent publication US20210388110A1 (published 2021).
